The record followed here is article PMC10786891, “Massively parallel profiling of RNA-targeting CRISPR-Cas13d”.

The chains are these.
T1: EsCas13d, nuclease-dead (Eubacterium siraeum, UniProt B0MS50, R295A;H300A;R849A;H854A)
T1 sequence: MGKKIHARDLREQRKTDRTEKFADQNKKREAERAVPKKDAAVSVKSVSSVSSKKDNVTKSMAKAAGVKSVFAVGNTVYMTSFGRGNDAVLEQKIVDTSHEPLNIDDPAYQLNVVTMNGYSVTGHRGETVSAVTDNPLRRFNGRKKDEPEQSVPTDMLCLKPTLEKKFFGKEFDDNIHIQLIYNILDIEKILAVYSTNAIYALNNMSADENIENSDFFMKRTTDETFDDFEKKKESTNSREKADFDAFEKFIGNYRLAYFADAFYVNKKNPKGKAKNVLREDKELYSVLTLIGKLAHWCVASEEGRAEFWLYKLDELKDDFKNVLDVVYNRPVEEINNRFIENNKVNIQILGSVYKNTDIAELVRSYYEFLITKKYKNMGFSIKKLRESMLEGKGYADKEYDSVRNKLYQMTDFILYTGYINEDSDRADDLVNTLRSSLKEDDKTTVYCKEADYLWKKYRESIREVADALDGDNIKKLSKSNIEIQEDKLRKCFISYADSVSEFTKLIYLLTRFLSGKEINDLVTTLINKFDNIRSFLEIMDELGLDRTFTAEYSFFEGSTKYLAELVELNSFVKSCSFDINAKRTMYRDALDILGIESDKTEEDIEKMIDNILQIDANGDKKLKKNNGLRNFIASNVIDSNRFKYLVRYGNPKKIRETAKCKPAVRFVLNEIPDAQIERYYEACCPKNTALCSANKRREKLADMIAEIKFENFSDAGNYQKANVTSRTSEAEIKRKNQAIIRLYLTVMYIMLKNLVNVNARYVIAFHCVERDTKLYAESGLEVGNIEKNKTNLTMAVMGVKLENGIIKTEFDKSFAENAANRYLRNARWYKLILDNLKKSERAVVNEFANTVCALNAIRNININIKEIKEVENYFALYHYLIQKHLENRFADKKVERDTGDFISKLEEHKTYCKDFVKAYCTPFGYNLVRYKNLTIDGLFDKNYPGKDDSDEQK

B1: target 1 del13,del20 (mixed)
RNA 1: CACCCGUGCAAAAAUGCAGGGGUCUAAAACUGAGCGGAUAACCUCUCUAUGG
RNA 2: GGGAAUGGAUCCACAUCUACGAAUUCGUACCUAGAGAGUUAUCCGCUCACCGAGAUCGGAAGAGCACACGU
B2: target 1 C2A,G13A (mixed)
RNA 1: CACCCGUGCAAAAAUGCAGGGGUCUAAAACUGAGCGGAUAACCUCUCUAUGG
RNA 2: GGGAAUGGAUCCACAUCUACGAAUUCGUACCAUAGAGAAGUUAUCCGCUAACCGAGAUCGGAAGAGCACACGU
B3: target 1 C2A,G15C (mixed)
RNA 1: CACCCGUGCAAAAAUGCAGGGGUCUAAAACUGAGCGGAUAACCUCUCUAUGG
RNA 2: GGGAAUGGAUCCACAUCUACGAAUUCGUACCAUAGACAGGUUAUCCGCUAACCGAGAUCGGAAGAGCACACGU
B4: target 1 insG 3' of 22,insG 3' of 7 (mixed)
RNA 1: CACCCGUGCAAAAAUGCAGGGGUCUAAAACUGAGCGGAUAACCUCUCUAUGG
RNA 2: GGGAAUGGAUCCACAUCUACGAAUUCGUACGCAUAGAGAGGUUAUCGCGCUCACCGAGAUCGGAAGAGCACACGU
B5: target 1 insC 3' of 14,insG 3' of 9 (mixed)
RNA 1: CACCCGUGCAAAAAUGCAGGGGUCUAAAACUGAGCGGAUAACCUCUCUAUGG
RNA 2: GGGAAUGGAUCCACAUCUACGAAUUCGUACCAUAGAGACGGUUAGUCCGCUCACCGAGAUCGGAAGAGCACACGU
B6: target 1 insC 3' of 15,insC 3' of 1 (mixed)
RNA 1: CACCCGUGCAAAAAUGCAGGGGUCUAAAACUGAGCGGAUAACCUCUCUAUGG
RNA 2: GGGAAUGGAUCCACAUCUACGAAUUCGUACCAUAGAGCAGGUUAUCCGCUCACCCGAGAUCGGAAGAGCACACGU
B7: target 1 U3G,G12U (mixed)
RNA 1: CACCCGUGCAAAAAUGCAGGGGUCUAAAACUGAGCGGAUAACCUCUCUAUGG
RNA 2: GGGAAUGGAUCCACAUCUACGAAUUCGUACCAUAGAGAGUUUAUCCGCGCACCGAGAUCGGAAGAGCACACGU
B8: target 1 C6U,G12U (mixed)
RNA 1: CACCCGUGCAAAAAUGCAGGGGUCUAAAACUGAGCGGAUAACCUCUCUAUGG
RNA 2: GGGAAUGGAUCCACAUCUACGAAUUCGUACCAUAGAGAGUUUAUCUGCUCACCGAGAUCGGAAGAGCACACGU
B9: target 1 A14C,C21U (mixed)
RNA 1: CACCCGUGCAAAAAUGCAGGGGUCUAAAACUGAGCGGAUAACCUCUCUAUGG
RNA 2: GGGAAUGGAUCCACAUCUACGAAUUCGUACUAUAGAGCGGUUAUCCGCUCACCGAGAUCGGAAGAGCACACGU
B10: target 1 insC 3' of 20,insC 3' of 10 (mixed)
RNA 1: CACCCGUGCAAAAAUGCAGGGGUCUAAAACUGAGCGGAUAACCUCUCUAUGG
RNA 2: GGGAAUGGAUCCACAUCUACGAAUUCGUACCACUAGAGAGGUUCAUCCGCUCACCGAGAUCGGAAGAGCACACGU
B11: target 1 insC 3' of 15,insA 3' of 2 (mixed)
RNA 1: CACCCGUGCAAAAAUGCAGGGGUCUAAAACUGAGCGGAUAACCUCUCUAUGG
RNA 2: GGGAAUGGAUCCACAUCUACGAAUUCGUACCAUAGAGCAGGUUAUCCGCUCAACCGAGAUCGGAAGAGCACACGU
B12: target 1 insA 3' of 11,insC 3' of 9 (mixed)
RNA 1: CACCCGUGCAAAAAUGCAGGGGUCUAAAACUGAGCGGAUAACCUCUCUAUGG
RNA 2: GGGAAUGGAUCCACAUCUACGAAUUCGUACCAUAGAGAGGUAUACUCCGCUCACCGAGAUCGGAAGAGCACACGU
B13: target 1 del17 (mixed)
RNA 1: CACCCGUGCAAAAAUGCAGGGGUCUAAAACUGAGCGGAUAACCUCUCUAUGG
RNA 2: GGGAAUGGAUCCACAUCUACGAAUUCGUACCAUAAGAGGUUAUCCGCUCACCGAGAUCGGAAGAGCACACGU
B14: target 1 insC 3' of 15,insG 3' of 3 (mixed)
RNA 1: CACCCGUGCAAAAAUGCAGGGGUCUAAAACUGAGCGGAUAACCUCUCUAUGG
RNA 2: GGGAAUGGAUCCACAUCUACGAAUUCGUACCAUAGAGCAGGUUAUCCGCUGCACCGAGAUCGGAAGAGCACACGU
B15: target 1 C6A,U11C (mixed)
RNA 1: CACCCGUGCAAAAAUGCAGGGGUCUAAAACUGAGCGGAUAACCUCUCUAUGG
RNA 2: GGGAAUGGAUCCACAUCUACGAAUUCGUACCAUAGAGAGGCUAUCAGCUCACCGAGAUCGGAAGAGCACACGU
B16: target 1 A9G,A14C (mixed)
RNA 1: CACCCGUGCAAAAAUGCAGGGGUCUAAAACUGAGCGGAUAACCUCUCUAUGG
RNA 2: GGGAAUGGAUCCACAUCUACGAAUUCGUACCAUAGAGCGGUUGUCCGCUCACCGAGAUCGGAAGAGCACACGU
B17: target 1 del19,del22 (mixed)
RNA 1: CACCCGUGCAAAAAUGCAGGGGUCUAAAACUGAGCGGAUAACCUCUCUAUGG
RNA 2: GGGAAUGGAUCCACAUCUACGAAUUCGUACAAGAGAGGUUAUCCGCUCACCGAGAUCGGAAGAGCACACGU
B18: target 1 insC 3' of 9,insG 3' of 2 (mixed)
RNA 1: CACCCGUGCAAAAAUGCAGGGGUCUAAAACUGAGCGGAUAACCUCUCUAUGG
RNA 2: GGGAAUGGAUCCACAUCUACGAAUUCGUACCAUAGAGAGGUUACUCCGCUCGACCGAGAUCGGAAGAGCACACGU
B19: target 1 del19,del20 (mixed)
RNA 1: CACCCGUGCAAAAAUGCAGGGGUCUAAAACUGAGCGGAUAACCUCUCUAUGG
RNA 2: GGGAAUGGAUCCACAUCUACGAAUUCGUACCAGAGAGGUUAUCCGCUCACCGAGAUCGGAAGAGCACACGU
B20: target 1 insA 3' of 6,insG 3' of 6 (mixed)
RNA 1: CACCCGUGCAAAAAUGCAGGGGUCUAAAACUGAGCGGAUAACCUCUCUAUGG
RNA 2: GGGAAUGGAUCCACAUCUACGAAUUCGUACCAUAGAGAGGUUAUCCAGGCUCACCGAGAUCGGAAGAGCACACGU
B21: target 1 C7U,A18U (mixed)
RNA 1: CACCCGUGCAAAAAUGCAGGGGUCUAAAACUGAGCGGAUAACCUCUCUAUGG
RNA 2: GGGAAUGGAUCCACAUCUACGAAUUCGUACCAUUGAGAGGUUAUUCGCUCACCGAGAUCGGAAGAGCACACGU
B22: target 1 U8G,C22A (mixed)
RNA 1: CACCCGUGCAAAAAUGCAGGGGUCUAAAACUGAGCGGAUAACCUCUCUAUGG
RNA 2: GGGAAUGGAUCCACAUCUACGAAUUCGUAACAUAGAGAGGUUAGCCGCUCACCGAGAUCGGAAGAGCACACGU
B23: target 1 A1C,A9U (mixed)
RNA 1: CACCCGUGCAAAAAUGCAGGGGUCUAAAACUGAGCGGAUAACCUCUCUAUGG
RNA 2: GGGAAUGGAUCCACAUCUACGAAUUCGUACCAUAGAGAGGUUUUCCGCUCCCCGAGAUCGGAAGAGCACACGU
B24: target 1 insC 3' of 9,insC 3' of 5 (mixed)
RNA 1: CACCCGUGCAAAAAUGCAGGGGUCUAAAACUGAGCGGAUAACCUCUCUAUGG
RNA 2: GGGAAUGGAUCCACAUCUACGAAUUCGUACCAUAGAGAGGUUACUCCGCCUCACCGAGAUCGGAAGAGCACACGU
B25: target 1 insC 3' of 22,insU 3' of 20 (mixed)
RNA 1: CACCCGUGCAAAAAUGCAGGGGUCUAAAACUGAGCGGAUAACCUCUCUAUGG
RNA 2: GGGAAUGGAUCCACAUCUACGAAUUCGUACCCAUUAGAGAGGUUAUCCGCUCACCGAGAUCGGAAGAGCACACGU
B26: target 1 C2U,U10G (mixed)
RNA 1: CACCCGUGCAAAAAUGCAGGGGUCUAAAACUGAGCGGAUAACCUCUCUAUGG
RNA 2: GGGAAUGGAUCCACAUCUACGAAUUCGUACCAUAGAGAGGUGAUCCGCUUACCGAGAUCGGAAGAGCACACGU
B27: target 1 insC 3' of 8,insU 3' of 1 (mixed)
RNA 1: CACCCGUGCAAAAAUGCAGGGGUCUAAAACUGAGCGGAUAACCUCUCUAUGG
RNA 2: GGGAAUGGAUCCACAUCUACGAAUUCGUACCAUAGAGAGGUUAUCCCGCUCAUCCGAGAUCGGAAGAGCACACGU

In this data set the target is T1, EsCas13d, nuclease-dead. Put plainly: crRNA (strand 1, pre-loaded); Mg2+; 40 mM Tris-HCl pH 7.5, 150 mM NaCl, 6 mM MgCl2, 1 mM DTT, 0.1% Tween-20, 0.2 mg/ml BSA; 25 C; 10 min per concentration, then washed. To be noted: tags: His6-TwinStrep-SUMO cleaved; N-terminal SNAP kept (SNAP-Surface 488); label: 3' end held by stalled T7 RNA polymerase.
B1: the Kd – broadly, the free concentration of one partner at which half of the binding sites on the other are occupied at equilibrium, for simple one-to-one binding – amounted to 0.056 ± 0.008 µM.

Consider B2, for which the affinity, expressed as Kd, was 0.00506 ± 0.00027 µM.

As to B3, the equilibrium dissociation constant (Kd) was 0.04 ± 0.004 µM.

B4 yielded a Kd of 0.0181 ± 0.0011 µM.

The molecule B5 yielded a Kd of 0.038 ± 0.009 µM.

For B6, the Kd is 0.0156 ± 0.0013 µM.

On to B7, for which the affinity, expressed as Kd, was 0.0085 ± 0.0004 µM.

B8 yielded a Kd of 0.0113 ± 0.0008 µM.

B9 showed an equilibrium dissociation constant (Kd) of 0.0073 ± 0.0006 µM. This Kd is about 1.5-fold lower than that of the molecule before.

B10: the Kd stood at 0.0087 ± 0.0006 µM.

B11 gave a Kd of 0.0156 ± 0.0008 µM.

With B12, the dissociation constant Kd was determined as 0.0153 ± 0.0008 µM.

B13: the Kd was 0.0226 ± 0.0016 µM.

Take B14: the dissociation constant Kd worked out at 0.00932 ± 0.00033 µM.

For the molecule B15, the dissociation constant (Kd) was 0.0086 ± 0.0007 µM.

Regarding B16, binding was characterised by a dissociation constant (Kd) of 0.046 ± 0.006 µM. Against the preceding molecule, the Kd is about 5.3-fold higher.

In turn, B17 gave a dissociation constant Kd of 0.056 ± 0.016 µM.

The molecule B18 showed a Kd of 0.0138 ± 0.0007 µM. Against the preceding molecule, the Kd is about 4.1-fold lower.

B19 had a dissociation constant Kd of 0.0324 ± 0.0034 µM. Compared with the last molecule, the Kd is about 2.3-fold higher.

With B20, the dissociation constant Kd was 0.032 ± 0.005 µM.

B21 yielded a Kd of 0.0269 ± 0.0023 µM.

Consider B22, for which binding was put at a Kd of 0.0276 ± 0.003 µM.

As for B23, the Kd was 0.02 ± 0.005 µM.

The molecule B24 came in with an equilibrium dissociation constant (Kd) of 0.0109 ± 0.0007 µM.

B25: the affinity, expressed as Kd, was 0.0183 ± 0.0027 µM. This Kd lies about 1.7-fold higher than the previous one.

Regarding B26, the Kd was determined as 0.0236 ± 0.0017 µM.

The molecule B27 returned a dissociation constant Kd of 0.0263 ± 0.0025 µM.
